Tested on: p33^QIK, quiescence induced kinase, 33-kDa Krsl-related cytoplasmic protein kinase, endogenous in mouse NIH3T3 cytosolic lysate (S20)

## Protein phosphatase 1 (PP1) (NE BioLabs)
  kinase activity of p33^QIK in Ab-KQ immune complexes after phosphatase treatment (in-gel kinase assay, MBP substrate): treatment of activated p33^QIK with protein phosphatase PP1 ... resulted in deactivation of p33^QIK This deactivation was suppressed by phosphatase inhibitors
